# B1: C-6 (ssRNA)
# RNA: GGGAGGACGAUGCGGUCCAUCGUCUCUUAUCGUCUCUUGUCGCGCCAGACGACUCGCCCGA
# Biological target: CCR7 (UniProt P32248 P32248:25-378)
# Assay: EMSA; + in gel shift assay
# CCR7, sequence (P32248 25-378, one chain of several): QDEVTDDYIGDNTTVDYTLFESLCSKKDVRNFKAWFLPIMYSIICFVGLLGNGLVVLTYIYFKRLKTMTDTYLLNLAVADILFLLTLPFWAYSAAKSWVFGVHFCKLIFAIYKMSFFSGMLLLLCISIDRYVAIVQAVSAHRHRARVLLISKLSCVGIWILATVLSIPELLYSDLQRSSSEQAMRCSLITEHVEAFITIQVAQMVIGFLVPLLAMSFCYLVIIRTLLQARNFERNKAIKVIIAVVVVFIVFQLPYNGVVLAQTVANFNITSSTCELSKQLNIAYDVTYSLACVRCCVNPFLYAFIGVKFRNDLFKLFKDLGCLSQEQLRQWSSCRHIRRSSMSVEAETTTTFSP
binder,measurement,value
B1,binding result,binds

# — US20210330692, “CCR7 APTAMERS AND USES THEREOF” (CITY OF HOPE, published 2021)
